# According to the DeepSol protein solubility set:
# Assay: soluble on expression in E. coli; label from the status in PepcDB or PDB records
row,Sequence,soluble on expression in E. coli
1,MGSDKIHHHHHHMESQNVSFRVAREDLVTAVAWVARNLPTKPTQPVLRAMLITADDEGLELAGYDYDVSTRVRLSAEVSQPGRIAVAGKLLSEITGSLPNKPVDFRIDGSKAFVTCGSSRFELPLIPLDDYPMLPKLPAGTGSINAKLFTEAVSQVASAAGKDDSLPMLTGVSMEIVGNQINLAATDRFRLALRTFEWEANDPELNVKLLIPARTLLDNARSLDSGLNDSIDIAVGTGDQVGREGLFGVHTDNRETTTRLLDADFPNIAPLLPKEHTAIASVEIAPLVDAIRRVSLVAERNAQIVLHFSEGQVILTAGATEAGHAEETLPCAFTGKELTIAFNPGYLKDGLSVVPTSRAVFGFTEPSRPAIMIPEPEEMPSANENGIFQTPDTYFTYLLMPVRLPG,not soluble
2,MGSDKIHHHHHHMKTRADLFAFFDAHGVDHKTLDHPPVFRVEEGLEIKAAMPGGHTKNLFLKDAKGQLWLISALGETTIDLKKLHHVIGSGRLSFGPQEMMLETLGVTPGSVTAFGLINDTEKRVRFVLDKALADSDPVNFHPLKNDATTAVSQAGLRRFLAALGVEPMIVDFAAMEVVG,soluble
3,MVFRKSLLKLAVFALGACVAFSNANAAEGKLESIKSKGQLIVGVKNDVPHYALLDQATGEIKGFEVDVAKLLAKSILGDDKKIKLVAVNAKTRGPLLDNGSVDAVIATFTITPERKRIYNFSEPYYQDAIGLLVLKEKKYKSLADMKGANIGVAQAATTKKAIGEAAKKIGIDVKFSEFPDYPSIKAALDAKRVDAFSVDKSILLGYVDDKSEILPDSFEPQSYGIVTKKDDPAFAKYVDDFVKEHKNEIDALAKKWGL,soluble
4,MAHHHHHHMANISPNSDGDSFVGADTAKQLSDIQKKLNDLKQRREELEEQRRRILGASDQSSSRPRSLRGPTQNRRRHSQPSQRTLPLRPPRPPISDHSIRIPNEKERQQTAQRTPYLEMKESMRRSWSRDSSLVMGSFLMEDNPRARTFTRERRFIPPPECNGIYFLGTEMELMIRNKNVAPSQRSGRRDNTPYRWNDIIDGVTPGPGAYTPLFSKVSKPSRRAQLF,not soluble
5,GPGSMFGRSALCLAKRFRYNTKYPSLVSYNKLPWEILNHETPEFHMHVAPHYEQIMTLAASTHVPHIVGKKHLEMPPEHRLRLLPGMFYMLDGDSIPEGFTANRVLDPTALQYYGRLESLVAPVQAVRMLISDDLRIVCNSVTLQGPLQLPVASYASLASLEVVTNKASASFTLFHFVRPNRPPSELQLEKYYIHAPRAMALAEFNSTSNTSWEPKLQAPKRSKRVTPLPAYRPPQSYLMGLAERLAVVPGSSFGRRSLMWGHWF,not soluble
6,MGHHHHHHSHMSTKVPIYLKRGSRKGKKEKLRDLLSSDMISPPLGDFRHTIHIGSGGGSDMFGDISFLQGKFHLLPGTMVEGPEEDGTFDLPFQFTRTATVVGRELPDGPSPLLKNAISLPVIGGPQALTLPTAQAPPKPPRLHLETPQPSPQEGGSVDIWRIPETGSPNSGLTPESGAEEPFLSNASSLLSLHVDLGPSILDDVLQIMDQDLDSMQIPT,not soluble
7,MKIAIIGAGIGGLTAGALLLEKGHDVSIFERQSNISEVGAGIGIGDNVIKKLGKHDLAKGIKNAGQNLSAMNVLDDKGNILSAVKLKEATLNVTLARQTLIELIQSYVNPQCIYTDHDVIKVENVEQHTMVHFSNHASQSFDLCIGSDGLHSVVRQAIHQNAKILYQGYTCFRGLVDDADLHNIDIASEYWGKRGRVGIVPLINNQAYWFITINASEKDPKYQTFEKPHLQAYFNNYPEPVRQILDKQSETGIQKHDLYDMKPLKSFVNQRILLLGDAAHATTPNMGQGAGQAMEDAIVLVNCLAEYDIEKALKRYDKLRVKHTAKVIKRSRKIGKIAQKDNKLVISLRNGVMKRTPNRLLSGQTKFLYKAKHKLEHHHHHH,not soluble
8,MGSLEKFNLIDEPWIPVLKGGRVVEVGIGEALLRAHEFARIETPSPLEEAVLHRLLLAVLHRALSGPRCPEDVLDWWRKGGFPQDPIRDYLNRFRDRFFLFHPEAPFLQVADLPEENPLPWSKLLPELASGNNPTLFDHTTEENLPKATYAQAARALLVHQAFAPGGLLRRYGVGSAKDAPVARPALFLPTGQNLLETLLLNLVPYTPEDDAPIWEVPPLRLGDLEGARTKWPLTGRTRVYTWPARGVRLLDEGDGVRFMGYGPGVEPLEATHRDPMVAQRLDAKGNLLVLRLSEERSFWRDFSAMLPRQGGKVAATLEHAENLQGELEDEGLEGRITLRVLGQVSDQAKVLDIRREVYPLPSGLLTPKAEENLEKALKMAEELGQGLKHLAQEVAKAVVGERDRGHGRSPYLEELTKLANSLPLERLYWHALDGAFPRFFARVEEEASLDLWREALRGAALEAWKATRRFLGTGARHLKALAQGEQEFGRLLGELGEEVRT,soluble
